Laboratory results reported in paper PMC12157903.

Columns and labels:
[1] = target: Recombinant protein G; test: optical weak value amplification (WVA) sensor; recombinant protein G (50 µg/mL, 30 min) immobilised on polydopamine on the prism, surface blocked; 10 µg/mL antibody (mouse IgG) injected at 30 µL/min for 120 min; PBS, 25 °C; reference channel with PBS subtracted; curves fitted with the intraparticle diffusion model
[2] = target: Mouse Immunoglobulin G (mouse); test: optical weak value amplification (WVA) sensor; oriented strategy: mouse IgG captured on immobilised protein G; 30 µg/mL protein L injected until the signal was saturated (120 min); 25 °C

| Substance | Kid,1 (intraparticle diffusion rate constant, surface diffusion stage) [1] [a.u.min^−1/2] | Kid,2 (intraparticle diffusion rate constant, intraparticle diffusion stage) [1] [a.u.min^−1/2] | Kid,3 (intraparticle diffusion rate constant, intraparticle diffusion stage) [1] [a.u.min^−1/2] | fold antibody immobilised, against random immobilisation on polydopamine [1] [fold] | fold binding sites, against randomly immobilised IgG [2] [times] |
| --- | --- | --- | --- | --- | --- |
| Mouse Immunoglobulin G (antibody) | 454 | 239 | 83.9 | 2.27 | – |
| Recombinant protein L | – | – | – | – | 1.59 |
